Substitutions are numbered along the chain they refer to. Names may count otherwise.
Assays:
[1] = molecular target: the molecule itself; assay: cell-based or functional assay
[2] = molecular target: the molecule itself; assay: SEC; oligomeric state from elution volumes (Superdex 200 Increase 10/300 GL, HiLoad 16/600 Superdex 200) with reference to ScKEOPS (monomeric, 117.7 kDa) and standard calibration
[3] = molecular target: the molecule itself; assay: cryo-EM structure; AtKEOPS mixed with tRNA^ArgCCU at 1:2; tRNA not seen; six subunits resolved (KAE1, PCC1, PCC1, KAE1, BUD32, CGI121); 3.2 Å after local refinement

B1: A. thaliana KEOPS variant PCC1^R73D–KAE1–BUD32–CGI121 (complex, Arabidopsis thaliana)
chain 1: MKKKMIAIGFEGSANKIGVGIVTLDGTILANPRHTYITPPGHGFLPRETAHHHLDHVLPLVKSALETSQVTPEEIDCICYTKGPGMGAPLQVSAIVVRVLSQLWKKPIVAVNHCVAHIEMGRVVTGADDPVVLYVSGGNTQVIAYSEGRYRIFGETIDIAVGNCLDRFARVLKLSNDPSPGYNIEQLAKKGENFIDLPYAVKGMDVSFSGILSYIETTAEEKLKNNECTPADLCYSLQETVFAMLVEITERAMAHCDKKDVLIVGGVGCNERLQEMMRTMCSERDGKLFATDDRYCIDNGAMIAYTGLLAFVNGIETPIEDSTFTQRFRTDEVHAVWREKEAVLLGDKKVAAN
chain 2: MDCEENVRDESLVLIKQGAEARVFESTFAGRRSIVKERFSKKYRHPILDAKLTLKRLNAEARCMTKARKLGVCTPVLYAVDTLLHSLTLEYIEGVSVKDIFLEFGTNGVVEERLDDVAAQIGAAIAKLHDGGLAHGDLTTSNMLVRSGTNQLVLIDFGLSVTSTLPEDKAVDLYVLERALLSMHSSCGNVMDRILTAYRKSSKQWSATFNKLAQVRQRGRKRTMIG
chain 3: MKVFNLDRGNTLSVSLFSGVTNSKELLNSMLDGSLKLEVSFLNASLIPDIFPLLAAAQKALISKSRDSLSTRTLHSELVYNYSGSKHITESLKRCGISENTTYILAARFNASPVEMEEVAKLINGKEIDLEELKTHANQANILKHYKITSQELGISSLGDAIVCRIAARDAL
chain 4: MAATVPATTRSDQTWDFSCNLDVSFESEEHALIAYTSLAVDKELQPDKVRRVMSVSNNKLSVHFEAIEARLLDASFSAFVDVLTLATRTIQEFGQK
In the case of B1, the “t^6A-catalytic activity relative to AtKEOPS dimer” value [1] is reported as roughly 25%.

B2: A. thaliana KEOPS complex (PCC1–KAE1–BUD32–CGI121) (complex, Arabidopsis thaliana)
chain 1: B1 chain 1
chain 2: B1 chain 2
chain 3: B1 chain 3
chain 4: B1 chain 4 with D73R
notes: AtKAE1, A. thaliana, as m1; AtBUD32, A. thaliana, as m2; AtCGI121, A. thaliana, as m3; AtPCC1, A. thaliana, as m4; Written as the four-subunit protomer; In solution the wild type is an eight-subunit dimer (K2B2C2P2) of this protomer, and it stood in that form in the pull-down from seedling lysate; also called AtKEOPS; KBCP; source: reconstituted from purified KAE1–PCC1 and BUD32–CGI121 (E. coli) …
With B2 the “stoichiometry N” value [2] was 2.

B3: A. thaliana KAE1–PCC1 subcomplex (complex, Arabidopsis thaliana)
chain 1: B1 chain 1
chain 2: B1 chain 4 with D73R
notes: AtKAE1, A. thaliana, as m1; AtPCC1, A. thaliana, as m4; Written as the KAE1–PCC1 heterodimer unit, which by SEC forms a dimer of itself; also called KP; AtKP; source: E. coli (Rosetta DE3 pLysS or BL21), co-expressed from pET26a–AtKAE1–PCC1-6His, purified (Ni-NTA, SEC)
With B3 the “stoichiometry N” value [2] was 2.

B4: A. thaliana KAE1–BUD32–PCC1 subcomplex (complex, Arabidopsis thaliana)
chain 1: B1 chain 1
chain 2: B1 chain 2
chain 3: B1 chain 4 with D73R
notes: AtKAE1, A. thaliana; AtBUD32, A. thaliana; AtPCC1, A. thaliana; Written as the three-subunit unit, which by SEC forms a dimer of itself; also called KBP; AtKBP; source: recombinant, heterologous expression; copies: + +
For B4, the “stoichiometry N” value [2] was 2.

B5: Arabidopsis thaliana PCC1 (natural protein)
chain: B1 chain 4 with D73R
notes: AtPCC1, A. thaliana, from chemically synthesized DNA; Forms a homodimer in the cryo-EM structure; also called AtPCC1; AT5G53045; source: E. coli (Rosetta DE3 pLysS or BL21), co-expressed with KAE1, purified (Ni-NTA, SEC)
B5: binds [3].

Source: publication PMC11077089, “Molecular basis of A. thaliana KEOPS complex in biosynthesizing tRNA t^6A” (Nucleic Acids Research, 2024)
